Experimental data taken from the supplement of paper PMC9170038.

Test system: MS2 coat protein
Assay: apparent KD of MS2 coat protein; higher = weaker reporter binding
Settings: Eterna round: R107
Method in brief: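 The designed RNA switches were transcribed on-chip from Illumina sequencing clusters. In 100 mM Tris-HCl pH 7.5, 80 mM KCl and 4 mM MgCl2, without or with constant ligand, they were titrated with SNAP-549-labelled MS2 coat protein from 0.7 or 1.5 nM to 3 µM in twofold steps. Apparent KD is the per-design median of normalised cluster binding-curve fits.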

[1] = input ligand: theophylline 20 uM
[2] = input ligand: tryptophan 2.4 mM
[3] = input ligand: theophylline 2 mM

Row | Sequence | apparent KD of MS2 coat protein (input ligand: arginine 13.2 mM) | apparent KD of MS2 coat protein [1] | apparent KD of MS2 coat protein [2] | apparent KD of MS2 coat protein (input ligand: none) | apparent KD of MS2 coat protein [3]
1 | CGAUGAUCGAGGGAUACCAGAAAUGGUAUUCCUUUAUUUCUUACAUGAGGAUCACCCAUGUUCCCUUGGCAGCUUUUGAUCAUCG [ETHB #7] | 60.5 nM | 86.1 nM | 74.6 nM |  | 
2 | CGCAACCAACAUGAGGAUCACCCAUGUGAAGGAGCGCCGAAUAAGGCAGGUAGGUCGCACAUGAAUAAAUCAUGAAGGAAGCGAA [XArg-A 12 NuPack] | 20.5 nM | 43.8 nM | 31.5 nM | 36.8 nM | 51.2 nM
3 | CGCCGCGCGGGAAGGAGCGCGAUUACAUAACAUGAGGAUCACCCAUGUAAGAAAUUAUUCAUGCAGGUAGGUCGCCCGCGCGGCG [Same State Arginine B GF 5] | 58.8 nM | 28.4 nM | 22.8 nM | 22.3 nM | 22.8 nM
4 | CGGUCGGUCGGCCGGUGAUUAUGGGAUGAAGGAGCGUGGGAAGCUACAGGUAGGUCGCAUCCGAACCAUGAGGAUCACCCAUGGU [SSArg A #23Alt-Ms2 Mod] | 23.2 nM | 26.8 nM | 21.7 nM | 25.1 nM | 39.2 nM
5 | CGGUUUGUGAUGGAUACCAGCAGAGAGAAUGUUUAUCCUGACAUGAGGAUCACCCAUGUGUGCCCUUGGCAGCUGUUGUGGGCUG [8.Y] | 42.4 nM | 102 nM | 55.8 nM |  | 
6 | CGUAGGAUCGUGGAUACCAGUACCGCCCACGACAUGAGGAUCACCCAUGUAGGUAAUCUUUACCCUUGGCAGCCAUUUUUUUCUG [theeternabot_sameState_MS2_Theo_B_14] | 41 nM | 72.6 nM | 45.2 nM |  | 
7 | CGUAUUGGAAACAGUACGAGUGAUCCGGUCCGAGGACCGGUACGGCCGCCACUCGAAAAUAAAUAACAUGAGGAUCACCCAUGUA [Ex Tryptophan A 8] | 19.5 nM | 21.6 nM |  |  | 19.8 nM
8 | CGUGAUCCCUGUGAUACCAGAAGUACAUGAGGAUCACCCAUGUCAAACACAAAACCAAGCUUCCCUUGGCAGCAUAGUCGUUAAG [Esmaenbiza] | 67.1 nM | 240 nM | 224 nM |  | 
9 | CGUGCUAGGGCGGCCGCCACUGUGGCUACGGUACAUGAGGAUCACCCAUGUUUGUGGUUGAUCUACAGGACCGGGCCCUGGCACG [Radiaerdi] | 131 nM | 442 nM | 280 nM | 107 nM | 756 nM
10 | CGUGGUGGGACGGAUACCAGCCACCGCGGCAACGCAACAUGAGGAUCACCCAUGUUGGGUGGCCCUUGGCAGCUGUGCUGCGACG [#1 Same State - Theophylline B Attempt #28 (HarryS)] | 50.9 nM | 191 nM | 95.2 nM | 182 nM | 34.2 nM
11 | CUAUAUAUAAGAAGGAGCGUCGAAAAUGGGUAAACAUGAGGAUCACCCAUGUAAAGGGAACGACAGGUAGGUCGCUUAUAUAUAG [AstromonsSSArgB#5] | 151 nM | 169 nM | 206 nM | 191 nM | 184 nM
12 | CUCAUCCACGCGGCCGCCACUAUAUUGUGGUGUGAGUGUGACGUAUUACAUGAGGAUCACCCAUGUAGGACCGGGCGUGGAUGAG [#06 Exclusion Tryptophan B] | 30.9 nM | 51.3 nM |  |  | 50.2 nM
13 | CUCCCGUGAGCGGCCGCCACUGGAGGCCUCGCGCGACAUGAGGAUCACCCAUGUUGGCCCGGCCUCAGGACCGGGUUCGCGCGAG [Same State - Tryptophan B Attempt #5 (HarryS)] | 7.94 nM | 12.4 nM | 7.41 nM | 9.67 nM | 9.89 nM
14 | CUCUGAGUGAUCGCUCACUCAGAGGCGGAUACCAGCGAGGUCCAUCGCCCUUGGCAGCCGAACAUGAGGAUCACCCAUGUCGGUA [#1 Same State - Theophylline A Attempt #20 (HarryS)] | 8.77 nM | 13.7 nM | 8.98 nM | 10.3 nM | 12.9 nM
15 | CUCUGGUGCUGAGUGAGUGUCGUGACUGAUACCAGAUGCCUUUACAUCCCUUGGCAGCAGUACAUGAGGAUCACCCAUGUAUUCC [Rireusrama] | 17.2 nM | 33.5 nM | 21.1 nM |  | 
16 | CUGCUACAUGAGGAUCACCCAUGUGGAGAUACCAGCCUGAACGAUGGCCCUUGGCAGCUCUUAGCUGGUGAUCAUAUAUUUCAGA [Zazaat] | 25.3 nM | 68.2 nM | 28.2 nM |  | 
17 | CUGUACAUCUCGGCCGCCACUGCAACAUGUAGAGAUGUAUAUGUACAUGAGGAUCACCCAUGUGGCAGGACCGGGAGGUGUGCAG [SSTryp B #27] | 167 nM | 128 nM | 111 nM | 147 nM | 206 nM
18 | CUUACGGGAAACCGACCCAAACAACGGGAAGGAGCGCCAAACAAGGCAGGUAGGUCGCCCACAUGAGGAUCACCCAUGUGUUGGG [Exclusion Arginine A GF 26] | 42.6 nM | 47.7 nM | 45.1 nM | 38 nM | 42.3 nM
